# Laboratory results from PMC9207415.
# Assay: SEC; TSK gel G3000SWXL, 100 mmol/L sodium phosphate with 100 mmol/L Na2SO4 (pH 6.8), isocratic, 0.4 ml/min, 25°C, UV at 280 nm; area percentages of monomer, oligomeric and truncated forms of the antibody solution (5 g/L in 10 mmol/L potassium phosphate pH 7.0)
substance,measurement,value
"NMIJ RM 6208a, AIST-MAB (humanized IgG1κ monoclonal antibody reference material)",area percentage of the monomer peak,(93.7 ± 0.2) %
